Data as given in PMC12222023 (Nature, 2024).

Columns and labels:
[1] = target: T1, His-tagged SIRT1(E230K), bacterially expressed (human, UniProt Q96EB6 1-747, E230K); assay: SEC
T1 sequence (looked up): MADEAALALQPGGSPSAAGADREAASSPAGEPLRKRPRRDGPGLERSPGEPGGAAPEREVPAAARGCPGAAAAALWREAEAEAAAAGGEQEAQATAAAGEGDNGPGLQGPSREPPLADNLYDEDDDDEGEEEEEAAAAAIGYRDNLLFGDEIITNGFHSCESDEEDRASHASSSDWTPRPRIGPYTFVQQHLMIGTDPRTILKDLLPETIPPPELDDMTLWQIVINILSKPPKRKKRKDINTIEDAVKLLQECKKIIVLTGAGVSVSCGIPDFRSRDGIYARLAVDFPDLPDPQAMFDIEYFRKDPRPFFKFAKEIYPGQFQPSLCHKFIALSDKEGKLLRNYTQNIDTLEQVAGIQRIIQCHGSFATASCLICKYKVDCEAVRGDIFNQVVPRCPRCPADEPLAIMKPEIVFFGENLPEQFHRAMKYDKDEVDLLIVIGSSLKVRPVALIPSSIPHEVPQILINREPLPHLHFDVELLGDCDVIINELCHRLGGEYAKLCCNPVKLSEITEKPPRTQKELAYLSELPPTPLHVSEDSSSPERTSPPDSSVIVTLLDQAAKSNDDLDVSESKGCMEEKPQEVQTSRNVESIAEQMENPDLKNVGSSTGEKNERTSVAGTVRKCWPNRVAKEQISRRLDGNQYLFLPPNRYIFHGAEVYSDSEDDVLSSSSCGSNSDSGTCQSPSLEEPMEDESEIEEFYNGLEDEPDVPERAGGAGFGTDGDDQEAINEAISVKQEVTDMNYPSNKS

[2] = target: T2, His-tagged SIRT1, bacterially expressed (human, UniProt Q96EB6 1-747); assay: SEC
T2 sequence (looked up): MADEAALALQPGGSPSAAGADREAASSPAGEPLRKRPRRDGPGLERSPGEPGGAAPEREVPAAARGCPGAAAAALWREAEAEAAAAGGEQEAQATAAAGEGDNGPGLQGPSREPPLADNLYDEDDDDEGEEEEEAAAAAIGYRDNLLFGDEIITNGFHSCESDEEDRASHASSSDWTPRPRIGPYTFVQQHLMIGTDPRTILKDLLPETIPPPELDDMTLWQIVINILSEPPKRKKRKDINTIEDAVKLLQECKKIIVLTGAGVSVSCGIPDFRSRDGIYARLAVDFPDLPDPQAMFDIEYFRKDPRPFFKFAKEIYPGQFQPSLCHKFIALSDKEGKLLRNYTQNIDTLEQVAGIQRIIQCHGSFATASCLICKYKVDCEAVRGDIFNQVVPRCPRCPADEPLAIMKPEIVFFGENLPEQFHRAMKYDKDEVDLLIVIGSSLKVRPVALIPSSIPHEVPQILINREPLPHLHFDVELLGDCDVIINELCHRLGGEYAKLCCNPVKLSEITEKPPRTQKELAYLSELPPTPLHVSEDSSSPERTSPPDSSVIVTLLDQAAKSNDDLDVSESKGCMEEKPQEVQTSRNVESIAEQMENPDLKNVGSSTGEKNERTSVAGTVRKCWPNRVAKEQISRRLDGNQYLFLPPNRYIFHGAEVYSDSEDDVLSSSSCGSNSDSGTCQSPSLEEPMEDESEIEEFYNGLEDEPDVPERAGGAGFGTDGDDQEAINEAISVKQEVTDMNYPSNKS

B1: His-tagged TULP3, bacterially expressed (natural protein, human, UniProt O75386 1-442, looked up)
chain: MEASRCRLSPSGDSVFHEEMMKMRQAKLDYQRLLLEKRQRKKRLEPFMVQPNPEARLRRAKPRASDEQTPLVNCHTPHSNVILHGIDGPAAVLKPDEVHAPSVSSSVVEEDAENTVDTASKPGLQERLQKHDISESVNFDEETDGISQSACLERPNSASSQNSTDTGTSGSATAAQPADNLLGDIDDLEDFVYSPAPQGVTVRCRIIRDKRGMDRGLFPTYYMYLEKEENQKIFLLAARKRKKSKTANYLISIDPVDLSREGESYVGKLRSNLMGTKFTVYDRGICPMKGRGLVGAAHTRQELAAISYETNVLGFKGPRKMSVIIPGMTLNHKQIPYQPQNNHDSLLSRWQNRTMENLVELHNKAPVWNSDTQSYVLNFRGRVTQASVKNFQIVHKNDPDYIVMQFGRVADDVFTLDYNYPLCAVQAFGIGLSSFDSKLACE
binding result [1]: binds

B2: His-tagged TULP3(4G), bacterially expressed (natural protein, human, UniProt O75386 1-442, looked up)
chain: MEASRCRLSPSGDSVFHEEMMKMRQAKLDYQRLLLEKRQRKKRLEPFMVQPNPEARLRRAKPRASDEQTPLVNCHTPHSNVILHGIDGPAAVLKPDEVHAPSVSSSVVEEDAENTVDTASKPGLQERLQKHDISESVNFDEETDGISQSACLERPNSASSQNSTDTGTSGSATAAQPADNLLGDIDDLEDFVGSGAPQGVTVRCRIIRDKRGMDRGLFPTYYMYLEKEENQKIFLLAARKRKKSKTANYLISIDPVDLSREGESYVGKLRSNLMGTKFTVYDRGICPMKGRGLVGAAHTRQELAAISYETNVLGFKGPRKMSVIIPGMTLNHGQIGYQPQNNHDSLLSRWQNRTMENLVELHNKAPVWNSDTQSYVLNFRGRVTQASVKNFQIVHKNDPDYIVMQFGRVADDVFTLDYNYPLCAVQAFGIGLSSFDSKLACE
binding result [2]: binds
